T1: p63^Krsl protein kinase (product of the Krsl gene), endogenous in mouse NIH3T3 cytosolic lysate (S20), Q9JI10
T1 chain: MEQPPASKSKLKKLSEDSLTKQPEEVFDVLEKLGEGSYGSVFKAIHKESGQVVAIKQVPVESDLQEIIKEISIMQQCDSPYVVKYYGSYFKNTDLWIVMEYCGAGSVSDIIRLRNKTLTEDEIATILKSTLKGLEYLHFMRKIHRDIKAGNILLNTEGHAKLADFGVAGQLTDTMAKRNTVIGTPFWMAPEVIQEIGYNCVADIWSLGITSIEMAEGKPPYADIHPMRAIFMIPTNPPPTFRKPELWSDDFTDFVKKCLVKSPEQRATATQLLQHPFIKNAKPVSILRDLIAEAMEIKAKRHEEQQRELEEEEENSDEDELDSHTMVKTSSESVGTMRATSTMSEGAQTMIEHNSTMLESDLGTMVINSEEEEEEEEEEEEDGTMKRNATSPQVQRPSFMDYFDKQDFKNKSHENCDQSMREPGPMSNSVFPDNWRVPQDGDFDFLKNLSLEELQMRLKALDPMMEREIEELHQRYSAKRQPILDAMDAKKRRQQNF

B1: Lambda protein phosphatase (lambda PPase) (NE BioLabs) (protein)
chain: MRYYEKIDGSKYRNIWVVGDLHGCYTNLMNKLDTIGFDNKKDLLISVGDLVDRGAENVECLELITFPWFRAVRGNHEQMMIDGLSERGNVNHWLLNGGGWFFNLDYDKEILAKALAHKADELPLIIELVSKDKKYVICHADYPFDEYEFGKPVDHQQVIWNRERISNSQNGIVKEIKGADTFIFGHTPAVKPLKFANQMYIDTGAVFCGNLTLIQVQGEGA
B2: Recombinant human Caspase-3 (Alexis Biochemicals) (protein)
chain: SGISLDNSYKMDYPEMGLCIIINNKNFHKSTGMTSRSGTDVDAANLRETFRNLKYEVRNKNDLTREEIVELMRDVSKEDHSKRSSFVCVLLSHGEEGIIFGTNGPVDLKKITNFFRGDRCRSLTGKPKLFIIQACRGTELDCGIETDSGVDDDMACHKIPVEADFLYAYSTAPGYYSWRNSKDGSWFIQSLCAMLKQYADKLEFMHILTRVNRKVATEFESFSFDATFHAKKQIPCIVSMLTKELYFYH

How the values were obtained:
[1] = molecular target: p33^QIK, quiescence induced kinase, 33-kDa Krsl-related cytoplasmic protein kinase, endogenous in mouse NIH3T3 cytosolic lysate (S20)
[2] = molecular target: p35, protein kinase of 35 kDa in STSP-treated NIH3T3 cells
[3] = molecular target: T1, p63^Krsl protein kinase (product of the …)

| Protein | kinase activity of p33^QIK in Ab-KQ immune complexes after phosphatase treatment (in-gel kinase assay, MBP substrate) [1] | kinase activity in Ab-KQ immune complexes after caspase-3 treatment (in-gel kinase assay, MBP substrate) [2] | kinase activity in Ab-KQ immune complexes after caspase-3 treatment (in-gel kinase assay, MBP substrate) [3] | kinase activity in Ab-KQ immune complexes after caspase-3 treatment (in-gel kinase assay, MBP substrate) [1] |
| --- | --- | --- | --- | --- |
| B1 | A similar result was obtained by using Lambda phosphatase in the reaction | – | – | – |
| B2 | – | both the kinase activities of p63^Krsl and p35 decreased in correlation with an increased p33^QIK activity that was completely blocked by a wide range caspase inhibitor Z-D-CH2-DCB | both the kinase activities of p63^Krsl and p35 decreased in correlation with an increased p33^QIK activity that was completely blocked by a wide range caspase inhibitor Z-D-CH2-DCB | no change was detected in the kinase activity of p33^QIK which was isolated from osmotic-stressed quiescent cultures (FIG. 8, lanes 6 to 8) or growing cultures |

— US20030170252
